According to US20220403048A1, “BINDING MOLECULES TO ARGINASE II [ARG2]” (Cancer Research Technology Limited, priority 2019, published 2022):
Where a chain is given by its changes, count along the chain named. Blank lines part the entries; values can stand above or below the molecule they belong to.

Legend:
human ARG2 = target: T1, human ARG2 (Homo sapiens, UniProt P78540, E275H/R327K); assay: Bio-Layer Interferometry (OctetRED) binding kinetics, human ARG2; settings: second-generation Fab; extended assay: association 10 min, dissociation 40 min, 0.47 to 30 nM, streptavidin surface with bio-ARG2
T1 construct: His10 (after a GGG linker) (C); made in house; host or cells: E. coli BL21 (DE3)
T1 sequence (P78540 23-354 E275H/R327K): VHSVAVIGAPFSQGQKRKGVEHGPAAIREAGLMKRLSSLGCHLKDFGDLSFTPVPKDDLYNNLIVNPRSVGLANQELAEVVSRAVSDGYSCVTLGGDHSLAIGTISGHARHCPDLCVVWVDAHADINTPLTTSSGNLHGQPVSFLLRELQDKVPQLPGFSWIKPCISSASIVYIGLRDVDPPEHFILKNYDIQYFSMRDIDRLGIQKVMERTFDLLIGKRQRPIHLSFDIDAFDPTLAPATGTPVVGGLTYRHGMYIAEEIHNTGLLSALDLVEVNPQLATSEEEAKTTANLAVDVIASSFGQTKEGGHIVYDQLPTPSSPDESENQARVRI
Text: (§1) The OctetRED (Pall ForteBio) instrument was used to assess the kinetic parameters of the interactions between C0020187 and recombinantly produced human ARG2, cynomolgus ARG2 and human ARG1. The Octet biosensor uses an optical analytical technique that analyses the interference pattern of white light reflected from two surfaces: a layer of immobilised protein on the sensor tip, and an internal reference layer. Any changes in binding at the biosensor tip result in a shift in interference pattern, which can be measured in real time. Molecules associating with or dissociating from ligands at the biosensor tip shift the interference pattern and generate a response on the Octet system which is recorded by the acquisition software.
(§2) Typically, a defined concentration of the analyte species is brought into contact with the coupled ligand and any binding is detected as an increased in signal (association phase). This is followed by a period of buffer rinse, during which dissociation of the analyte species from the surface immobilised ligand can be observed as a decrease in signal (dissociation phase). Repetition of this with a range of analyte concentrations provides data for the analysis of binding kinetics.
(§3) An Octet Kinetics Buffer (PBS containing 0.01% BSA and 0.002% Tween20) is typically used as the diluent buffer for the analyte samples and as the flow buffer during the dissociation phase. The experimental data is recorded over time as shift in interference pattern (nm) over time, which is directly proportional to the optical thickness at the biosensor tip, which in turn is an approximate measure of the mass of analyte bound. The proprietary Octet Data Analysis software package can then be used to process data and fit binding models to the data sets. Returned association (ka, M^−1 s^−1) and dissociation (kd, s^−1) rate constants allow calculation of dissociation (KD, M) affinity constants.
(§4) The affinity of binding between the Fab of C0020187 and human ARG2, cynomolgus ARG2 and human ARG1 was estimated using assays in which the biotinylated ARG antigen was captured on a streptavidin sensor tip. A fresh sensor tip was used for each measurement and no regeneration was used. A series of dilutions of the C0020187 Fab (3.25-240 nM) were individually placed in contact with the ligand surface for a sufficient amount of time to observe sensorgrams that could be fitted to an appropriate binding model with confidence (typically 5 minutes), followed by an appropriate length of dissociation time (typically 10 minutes). Blank reference (0 nM Fab) data were subtracted from each dataset to reduce the impact of any buffer artefacts or non-specific binding effects. An appropriate binding model was then fitted simultaneously to the data from each analyte titration using the Octet Evaluation software.
(§5) Example results for C0020187 are shown in Table 9, showing the association rate constants (ka), dissociation rate constants (kd) and dissociation constants (KD). These parameters were derived from a 1:1 binding fit to the data.
(§6) The affinities of the affinity-matured antibodies to human ARG2 were measured on the OctetRED system as described in section 1.15 using the streptavidin capture method. Typically, an analyte titration range of 1.8 to 120 nM was used.
The affinities of the second-generation antibodies to human ARG2 were measured on the OctetRED system. A screening assay which stably captures His-tagged ARG2 as the ligand on an anti-His surface was utilised to screen the second-generation candidates as Fabs at an analyte range of 1.8 to 120 nM, with an association time of 5 minutes and a dissociation time of 10 minutes. Sensors were regenerated using 10 mM glycine pH 1.5 after each cycle. Based on this assay, six candidates with estimated affinities in the sub-nanomolar range were identified, and they were further profiled using an extended assay which is more suitable for antibodies of high affinities. […]

cynomolgus ARG2 = assay: Bio-Layer Interferometry (OctetRED) binding kinetics, cynomolgus ARG2; settings: second-generation Fab; cyno ARG2 ligand; same extended assay
Text: as §1, §2, §3, §4, §5, §6
The affinities of some of these antibodies to cynomolgus ARG2 were determined using the same assay, and the derived kinetic parameters are shown in Table 21.

human ARG1 = target: T2, human ARG1 (Homo sapiens, UniProt P05089); assay: Bio-Layer Interferometry (OctetRED) binding, human ARG1; settings: Fab analyte up to 120 nM, screening assay on anti-His surface
T2 construct: Avi tag (N); His10 (after a GGG linker) (C); made in house; host or cells: E. coli BL21 (DE3)
T2 sequence (P05089 with tags, fused parts or gaps): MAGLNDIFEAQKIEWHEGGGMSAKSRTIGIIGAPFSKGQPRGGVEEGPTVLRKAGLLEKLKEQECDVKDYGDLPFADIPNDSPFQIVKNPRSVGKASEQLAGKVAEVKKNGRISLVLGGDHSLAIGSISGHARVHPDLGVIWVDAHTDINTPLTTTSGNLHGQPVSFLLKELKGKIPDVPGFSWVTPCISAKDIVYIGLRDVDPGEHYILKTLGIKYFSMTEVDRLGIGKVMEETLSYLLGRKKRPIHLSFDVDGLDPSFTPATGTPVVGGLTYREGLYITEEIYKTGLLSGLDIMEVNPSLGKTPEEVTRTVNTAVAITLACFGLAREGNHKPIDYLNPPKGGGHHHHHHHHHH
Experimental: as §4
(§7) The binding of affinity-matured antibodies to human ARG1 was also tested on the OctetRED system using a screening assay which stably captures […] as the ligand on an anti-His surface. The Fabs were typically tested in an analyte range of 1.8 to 120 nM, with an association time of 5 minutes and a dissociation time of 10 minutes. Sensors were regenerated using 10 mM glycine pH 1.5 after each cycle.
as §7, with “Binding” for “The binding”, “the second-generation” for “affinity-matured”, “ARG” for “ARG1”, “were” for “were typically”, “as” for “in an”, “up” for “range of 1.8”

cynomolgus ARG2, sequence (as listed by the source): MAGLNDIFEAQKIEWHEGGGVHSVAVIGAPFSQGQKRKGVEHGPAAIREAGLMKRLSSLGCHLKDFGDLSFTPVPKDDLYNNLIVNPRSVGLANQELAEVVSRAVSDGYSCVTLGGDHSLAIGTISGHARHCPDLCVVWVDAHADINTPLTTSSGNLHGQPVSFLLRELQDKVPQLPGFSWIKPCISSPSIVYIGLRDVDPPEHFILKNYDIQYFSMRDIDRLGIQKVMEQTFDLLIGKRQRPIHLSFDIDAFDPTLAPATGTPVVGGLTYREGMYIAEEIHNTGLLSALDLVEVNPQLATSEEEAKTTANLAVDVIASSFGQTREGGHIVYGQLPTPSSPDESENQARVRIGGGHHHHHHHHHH

ka (human ARG2): 145000 M⁻¹ s⁻¹
kd (human ARG2): 4.17e-05 s⁻¹
ka (cynomolgus ARG2): 257000 M⁻¹ s⁻¹
kd (cynomolgus ARG2): 4.43e-05 s⁻¹
Results, binding to human ARG1 (BLI) (human ARG1): No binding observed
B1: C0021181: anti-ARG2 antibody, VH SEQ ID NO: 342, VL SEQ ID NO: 347 (antibody, listed as Homo sapiens, V domains shown)
VH: EVQLLESGGGLVRPGGSLRLSCAASEFTFRYDYHVWVRQAPGKGLEWVSAISGSGGSTYYADSVKSRFTISRDNSKNTLYLQMNSLRAEDTAVYYCARLRADLGLYMDLWGRGTLVTVSS
VL: QSVLTQPPSVSAAPGQKVAVSCSGSSSNIGSHYVSWYQQLPGTAPKLLIYDNSERTSGIPDRFSGSKSGTSATLGITGLQTGDEADYYCGTWDELTSNLVFGGGTRLTVL
modifications: C0021181

ka (human ARG2): 202000 M⁻¹ s⁻¹
kd (human ARG2): 3.51e-05 s⁻¹
ka (cynomolgus ARG2): 414000 M⁻¹ s⁻¹
kd (cynomolgus ARG2): 3.12e-05 s⁻¹
Results, binding to human ARG1 (BLI) (human ARG1): No binding observed
B2: C0021177: anti-ARG2 antibody, VH SEQ ID NO: 322, VL SEQ ID NO: 327 (antibody, listed as Homo sapiens, V domains shown)
VH: EVQLLESGGGLVQPGGSLRLSCAASGFTFRYEVAAWVRQAPGKGLEWVSAISGPAPKGYYADSVKGRFTISRDNSKNTLYLQMNSLRAEDTAVYYCARLRADLGLYMDLWGRGTLVTVSS
VL: QSELTQPPTASAAPGQKVTISCSGSSSNIGNHYVSWYQQLPGTAPKLLIYDTTVLSSGIPDRFSGSKSGTSATLGITGLQTGDEADYYCGTWDELTSNLVFGGGTKLTVL
modifications: C0021177

ka (human ARG2): 278000 M⁻¹ s⁻¹
kd (human ARG2): 0.000122 s⁻¹
ka (cynomolgus ARG2): 381000 M⁻¹ s⁻¹
kd (cynomolgus ARG2): 0.000135 s⁻¹
Results, binding to human ARG1 (BLI) (human ARG1): No binding observed
B3: C0021180: anti-ARG2 antibody, VH SEQ ID NO: 332, VL SEQ ID NO: 337 (antibody, listed as Homo sapiens, V domains shown)
VH: B2 VH with A55I
VL: QSVLTQPPTVSAAPGRKVTISCSGSSSNIGDHHVSWYQQLPGAAPKLLIYDTDHMASGIPDRFSGSRSGTSATLGITGLQTGDEADYYCGTWDSSLSALVFGGGTKLTVL
modifications: C0021180
